Data from PMC3250484, “Molecular Networks in FGF Signaling: Flotillin-1 and Cbl-Associated Protein Compete for the Binding to Fibroblast Growth Factor Receptor Substrate 2” (PLoS ONE, 2012).

T1: FRS2-His (UniProt Q8WU20 1-508)
T1 construct: called one of the 'FL proteins' in the results; The vector pSCherry2 (Eurogentec) may add a Cherry carrier besides the His tag (surmise); also called His-tagged FRS2; purified FRS2-His; source: E. coli SE1, purified (Ni-NTA, dialysis)
T1 sequence (looked up): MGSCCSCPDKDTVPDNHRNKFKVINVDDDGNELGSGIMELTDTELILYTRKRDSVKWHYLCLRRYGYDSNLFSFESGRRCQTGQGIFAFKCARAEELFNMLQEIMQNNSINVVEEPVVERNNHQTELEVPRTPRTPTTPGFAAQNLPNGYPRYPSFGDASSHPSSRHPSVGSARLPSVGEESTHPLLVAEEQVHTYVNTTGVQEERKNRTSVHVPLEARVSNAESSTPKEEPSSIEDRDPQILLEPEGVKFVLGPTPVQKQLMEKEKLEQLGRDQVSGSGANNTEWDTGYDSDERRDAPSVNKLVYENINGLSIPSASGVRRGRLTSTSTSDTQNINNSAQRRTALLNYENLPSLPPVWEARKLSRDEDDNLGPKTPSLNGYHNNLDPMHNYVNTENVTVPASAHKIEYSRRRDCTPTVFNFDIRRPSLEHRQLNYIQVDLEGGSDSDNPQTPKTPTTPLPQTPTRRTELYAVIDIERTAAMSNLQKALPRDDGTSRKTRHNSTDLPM

T2: FL Flot-1-GST (Rattus norvegicus (Rat), UniProt Q9Z1E1-1)
T2 chain: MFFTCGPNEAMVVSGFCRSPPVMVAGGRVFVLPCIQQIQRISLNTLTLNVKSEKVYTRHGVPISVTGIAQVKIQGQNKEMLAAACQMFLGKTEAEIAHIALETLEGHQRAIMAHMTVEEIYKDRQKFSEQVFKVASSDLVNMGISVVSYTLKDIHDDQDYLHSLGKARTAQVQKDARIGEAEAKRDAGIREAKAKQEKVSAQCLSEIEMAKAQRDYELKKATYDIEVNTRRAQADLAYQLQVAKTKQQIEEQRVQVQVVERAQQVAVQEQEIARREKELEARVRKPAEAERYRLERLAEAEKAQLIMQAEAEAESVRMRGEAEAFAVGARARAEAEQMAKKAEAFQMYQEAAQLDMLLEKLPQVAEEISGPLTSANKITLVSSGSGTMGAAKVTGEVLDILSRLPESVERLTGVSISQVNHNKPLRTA

T3: Flot-1-CT-GST (Rattus norvegicus (Rat), UniProt Q9Z1E1)
T3 chain: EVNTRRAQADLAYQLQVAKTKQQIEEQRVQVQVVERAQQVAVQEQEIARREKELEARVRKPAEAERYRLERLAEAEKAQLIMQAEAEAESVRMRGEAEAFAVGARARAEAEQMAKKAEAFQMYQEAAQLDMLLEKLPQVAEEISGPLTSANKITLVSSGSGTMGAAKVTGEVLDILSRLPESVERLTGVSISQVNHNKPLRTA


Experiments:
FRS2-His = molecular target: T1, FRS2-His; assay: pull-down; GST fusion immobilised on sepharose beads, purified FRS2-His in solution; 5 µg of the purified proteins, on ice 3 h; wash 50 mM Tris-HCl pH 7.5, 150 mM NaCl, 1 mM EDTA, 1 mM DTT, 0.01% Triton X-100; anti-His blot; conditions: both partners purified
FL Flot-1-GST = molecular target: T2, FL Flot-1-GST; assay: GST pulldown
Flot-1-CT-GST = molecular target: T3, Flot-1-CT-GST; assay: GST pulldown

binding result (FRS2-His) | binding result (FL Flot-1-GST) | binding result (Flot-1-CT-GST) | Binder
binds |  |  | FL Flot-1-GST (natural protein, rat, UniProt Q9Z1E1-1 1-428, looked up, Rat flotillin-1 in pET41a, full length; pET41a adds further N-terminal tags besides GST (surmise from the vector); also called flot-1-FL-GST) MFFTCGPNEAMVVSGFCRSPPVMVAGGRVFVLPCIQQIQRISLNTLTLNVKSEKVYTRHGVPISVTGIAQVKIQGQNKEMLAAACQMFLGKTEAEIAHIALETLEGHQRAIMAHMTVEEIYKDRQKFSEQVFKVASSDLVNMGISVVSYTLKDIHDDQDYLHSLGKARTAQVQKDARIGEAEAKRDAGIREAKAKQEKVSAQCLSEIEMAKAQRDYELKKATYDIEVNTRRAQADLAYQLQVAKTKQQIEEQRVQVQVVERAQQVAVQEQEIARREKELEARVRKPAEAERYRLERLAEAEKAQLIMQAEAEAESVRMRGEAEAFAVGARARAEAEQMAKKAEAFQMYQEAAQLDMLLEKLPQVAEEISGPLTSANKITLVSSGSGTMGAAKVTGEVLDILSRLPESVERLTGVSISQVNHNKPLRTA
 | binds | binds | FRS2-His (protein) MGSCCSCPDKDTVPDNHRNKFKVINVDDDGNELGSGIMELTDTELILYTRKRDSVKWHYLCLRRYGYDSNLFSFESGRRCQTGQGIFAFKCARAEELFNMLQEIMQNNSINVVEEPVVERNNHQTELEVPRTPRTPTTPGFAAQNLPNGYPRYPSFGDASSHPSSRHPSVGSARLPSVGEESTHPLLVAEEQVHTYVNTTGVQEERKNRTSVHVPLEARVSNAESSTPKEEPSSIEDRDPQILLEPEGVKFVLGPTPVQKQLMEKEKLEQLGRDQVSGSGANNTEWDTGYDSDERRDAPSVNKLVYENINGLSIPSASGVRRGRLTSTSTSDTQNINNSAQRRTALLNYENLPSLPPVWEARKLSRDEDDNLGPKTPSLNGYHNNLDPMHNYVNTENVTVPASAHKIEYSRRRDCTPTVFNFDIRRPSLEHRQLNYIQVDLEGGSDSDNPQTPKTPTTPLPQTPTRRTELYAVIDIERTAAMSNLQKALPRDDGTSRKTRHNSTDLPM
